Assay results: patent US20180162952A1 (AbbVie / Abbott, published 2018)

T1: human PTK7, full length, expressed on transduced cells (human, UniProt Q13308 31-1070)
T1 sequence: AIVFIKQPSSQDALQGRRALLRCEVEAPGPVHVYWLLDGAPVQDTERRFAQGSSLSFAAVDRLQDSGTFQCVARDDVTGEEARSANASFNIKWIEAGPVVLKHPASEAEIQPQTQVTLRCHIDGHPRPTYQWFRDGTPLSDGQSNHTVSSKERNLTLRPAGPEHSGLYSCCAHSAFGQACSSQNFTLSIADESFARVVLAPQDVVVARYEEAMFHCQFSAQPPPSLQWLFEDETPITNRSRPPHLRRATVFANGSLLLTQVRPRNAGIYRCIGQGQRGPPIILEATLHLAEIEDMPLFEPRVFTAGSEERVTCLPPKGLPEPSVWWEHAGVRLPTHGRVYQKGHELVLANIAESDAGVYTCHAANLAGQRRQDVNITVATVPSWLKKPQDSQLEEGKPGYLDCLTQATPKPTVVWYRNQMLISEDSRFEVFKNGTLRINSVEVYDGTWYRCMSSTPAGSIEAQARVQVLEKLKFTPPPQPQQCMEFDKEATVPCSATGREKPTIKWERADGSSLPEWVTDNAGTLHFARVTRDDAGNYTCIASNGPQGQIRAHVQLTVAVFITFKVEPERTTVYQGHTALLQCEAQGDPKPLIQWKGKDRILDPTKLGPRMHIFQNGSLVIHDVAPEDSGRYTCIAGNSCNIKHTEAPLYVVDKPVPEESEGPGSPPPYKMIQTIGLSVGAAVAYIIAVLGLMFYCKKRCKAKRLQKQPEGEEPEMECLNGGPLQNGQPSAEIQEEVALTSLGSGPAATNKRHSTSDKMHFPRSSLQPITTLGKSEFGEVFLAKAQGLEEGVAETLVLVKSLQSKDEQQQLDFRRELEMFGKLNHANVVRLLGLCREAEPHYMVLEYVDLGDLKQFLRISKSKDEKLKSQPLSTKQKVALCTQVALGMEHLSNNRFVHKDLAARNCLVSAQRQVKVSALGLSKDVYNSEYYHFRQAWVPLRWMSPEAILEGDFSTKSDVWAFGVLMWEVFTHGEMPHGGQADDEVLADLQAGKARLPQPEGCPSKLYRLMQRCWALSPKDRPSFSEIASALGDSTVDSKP

T2: hPTK7-His (soluble His-tagged human PTK7 extracellular domain) (human, UniProt Q13308 31-704)
T2 construct: also called PTK7-ECD-His; monomeric recombinant hPTK7-His (isoform a)
T2 sequence: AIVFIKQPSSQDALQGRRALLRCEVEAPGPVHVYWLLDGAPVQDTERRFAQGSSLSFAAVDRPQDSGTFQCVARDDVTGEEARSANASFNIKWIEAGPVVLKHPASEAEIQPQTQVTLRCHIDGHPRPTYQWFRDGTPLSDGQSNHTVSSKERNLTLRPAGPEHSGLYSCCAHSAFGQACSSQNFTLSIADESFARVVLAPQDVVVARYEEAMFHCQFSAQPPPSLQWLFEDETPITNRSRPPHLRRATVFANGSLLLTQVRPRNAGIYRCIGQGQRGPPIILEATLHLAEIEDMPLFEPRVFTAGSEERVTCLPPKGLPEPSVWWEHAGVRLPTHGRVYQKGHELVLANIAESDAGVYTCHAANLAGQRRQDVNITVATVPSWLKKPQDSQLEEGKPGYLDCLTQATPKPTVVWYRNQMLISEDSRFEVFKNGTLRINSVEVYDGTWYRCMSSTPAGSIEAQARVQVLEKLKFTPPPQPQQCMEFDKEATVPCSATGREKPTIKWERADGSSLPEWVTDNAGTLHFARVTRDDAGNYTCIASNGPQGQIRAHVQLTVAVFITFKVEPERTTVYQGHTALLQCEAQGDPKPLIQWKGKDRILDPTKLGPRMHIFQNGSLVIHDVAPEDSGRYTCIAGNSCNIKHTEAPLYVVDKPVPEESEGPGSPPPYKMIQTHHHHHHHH

T3: PTK7 ECD Ig domains 1-5 Fc fusion (human)
T3 chain: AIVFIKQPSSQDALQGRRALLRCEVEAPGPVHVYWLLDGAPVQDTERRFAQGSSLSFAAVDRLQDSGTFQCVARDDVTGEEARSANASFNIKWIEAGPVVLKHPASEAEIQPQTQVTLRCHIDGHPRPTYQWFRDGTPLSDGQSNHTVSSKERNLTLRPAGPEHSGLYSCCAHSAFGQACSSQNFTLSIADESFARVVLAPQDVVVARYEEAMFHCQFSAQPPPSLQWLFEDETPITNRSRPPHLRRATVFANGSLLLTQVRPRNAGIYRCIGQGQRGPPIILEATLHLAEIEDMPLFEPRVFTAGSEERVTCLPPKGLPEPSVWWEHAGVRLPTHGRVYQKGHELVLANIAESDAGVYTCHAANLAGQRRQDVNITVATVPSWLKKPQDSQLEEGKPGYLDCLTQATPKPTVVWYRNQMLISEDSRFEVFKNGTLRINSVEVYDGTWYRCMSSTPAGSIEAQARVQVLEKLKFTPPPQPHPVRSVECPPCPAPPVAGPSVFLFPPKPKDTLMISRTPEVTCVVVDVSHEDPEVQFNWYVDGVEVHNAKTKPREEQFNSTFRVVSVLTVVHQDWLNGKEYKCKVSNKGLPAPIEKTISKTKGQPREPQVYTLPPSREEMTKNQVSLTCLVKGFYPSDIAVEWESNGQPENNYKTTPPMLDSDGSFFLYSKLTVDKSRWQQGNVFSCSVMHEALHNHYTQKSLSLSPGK

B1: SC6.10.2 (antibody, V domains shown)
VH: QVQLQQSGAELVRPGVSVKISCKGSGYRFTDYPIHWVKQSHAKSLEWIGIISTYYGDVTNNPKFRGKATMTVDKSSTTAYMELARLTSEDSAIYYCARNDLFAYWGQGTLVTVSA
VL: DIVMTQSQKFMSTSVGDRVNVTCKASQNVGTNVVWYQQKTGQSPKALIHSASYRYSGVPDRFTGSGSGTDFTLTLSNVQSEDLAEYFCQHYNSFPYTFGGGTKLEIKR
notes: Murine monoclonal antibody from a hybridoma; also called H10.2; H10
B2: SC6.2.35 (antibody, V domains shown)
VH: QVQMQQSGAELMKPGASVKLSCKATGYTFTGYWIEWVKQRPGHGLEWIGEILPGSGRSNSNEKFKGKATFTADTSSNTAYMQLSSLTTEDSAIYYCARGKLSWGQGTLVTVSA
VL: DIVLTQSPASLAVSLGQRATISCRASESVDSFGNSFMHWYQQKPGQPPKLLIYAASNLGSGVPARFSGSGSGTDFSLNIHPVEEDDSAMYFCQQSKEVPRTFGGGSRLEIKR
notes: Murine monoclonal antibody from a hybridoma; also called H2.35; SC6.H2

Legend:
[1] = target: T1, human PTK7, full length, expressed on …; experiment: cell-based or functional assay
[2] = target: T2, hPTK7-His (soluble His-tagged human …); experiment: Biacore (superscript B); column Affinity (nM)
Protocol: Second, the affinities and kinetic constants kₒₙ and koff of the selected effectors were then measured using bio-layer interferometry analysis on a ForteBio RED (ForteBio, Inc.) with a standard antigen concentration series. Finally, the affinity of selected modulators was measured by surface plasmon resonance (Biacore System, GE Healthcare).

[3] = target: T3, PTK7 ECD Ig domains 1-5 Fc fusion; experiment: ELISA, Ig-domain Fc fusion captured by anti-human IgG Fc
Protocol: Using these constructs several modulators were tested for their ability to recognize PTK7 proteins with deletions of defined Ig domains. Through an ELISA assay comprising the use of domain deleted constructs and run under standard conditions. In this regard PTK7 Ig domain Fc fusions were captured on ELISA plate coated with goat anti-human IgG Fc-specific (Jackson Immunoresearch) antibody. The ability of each murine anti-PTK7 antibody to bind the various deletion Fc fusion proteins was then detected with HRP-labeled goat anti-mouse Fc-specific antibody.

Binder | EC50, saporin (Fab-ZAP) cell killing, 293.PTK7 Cells [1] | Kd [2] | binding result [3]
B1 | 1.1 pM | 5.6 nM | binds
B2 | 0.65 pM | < 0.1 nM | binds
